Test results published in article PMC9302676.
Numbering of substitutions follows the chain as printed. Numbers in names are those of the source.

B1: P450 BM3 (CYP102A1) (Priestia megaterium NBRC 15308 = ATCC 14581) (protein)
chain: MTIKEMPQPKTFGELKNLPLLNTDKPVQALMKIADELGEIFKFEAPGRVTRYLSSQRLIKEACDESRFDKNLSQALKFVRDFAGDGLFTSWTHEKNWKKAHNILLPSFSQQAMKGYHAMMVDIAVQLVQKWERLNADEHIEVPEDMTRLTLDTIGLCGFNYRFNSFYRDQPHPFITSMVRALDEAMNKLQRANPDDPAYDENKRQFQEDIKVMNDLVDKIIADRKASGEQSDDLLTHMLNGKDPETGEPLDDENIRYQIITFLIAGHETTSGLLSFALYFLVKNPHVLQKAAEEAARVLVDPVPSYKQVKQLKYVGMVLNEALRLWPTAPAFSLYAKEDTVLGGEYPLEKGDELMVLIPQLHRDKTIWGDDVEEFRPERFENPSAIPQHAFKPFGNGQRACIGQQFALHEATLVLGMMLKHFDFEDHTNYELDIKETLTLKPEGFVVKAKSKKIPLGGIPSPSTEQSAKKVRKKAENAHNTPLLVLYGSNMGTAEGTARDLADIAMSKGFAPQVATLDSHAGNLPREGAVLIVTASYNGHPPDNAKQFVDWLDQASADEVKGVRYSVFGCGDKNWATTYQKVPAFIDETLAAKGAENIADRGEADASDDFEGTYEEWREHMWSDVAAYFNLDIENSEDNKSTLSLQFVDSAADMPLAKMHGAFSTNVVASKELQQPGSARSTRHLEIELPKEASYQEGDHLGVIPRNYEGIVNRVTARFGLDASQQIRLEAEEEKLAHLPLAKTVSVEELLQYVELQDPVTRTQLRAMAAKTVCPPHKVELEALLEKQAYKEQVLAKRLTMLELLEKYPACEMKFSEFIALLPSIRPRYYSISSSPRVDEKQASITVSVVSGEAWSGYGEYKGIASNYLAELQEGDTITCFISTPQSEFTLPKDPETPLIMVGPGTGVAPFRGFVQARKQLKEQGQSLGEAHLYFGCRSPHEDYLYQEELENAQSEGIITLHTAFSRMPNQPKTYVQHVMEQDGKKLIELLDQGAHFYICGDGSQMAPAVEATLMKSYADVHQVSEADARLWLQQLEEKGRYAKDVWAG
B2: P450 BM3 (CYP102A1) (Priestia megaterium NBRC 15308 = ATCC 14581; N320L/T412V) (protein)
chain: B1 chain with N320L, T412V
B3: P450 BM3 (CYP102A1) (Priestia megaterium NBRC 15308 = ATCC 14581; N320L/T412V/T437A) (protein)
chain: B1 chain with N320L, T412V, T437A
B4: P450 BM3 (CYP102A1) (Priestia megaterium NBRC 15308 = ATCC 14581; N320L/T437A) (protein)
chain: B1 chain with N320L, T437A
B5: P450 BM3 (CYP102A1) (Priestia megaterium NBRC 15308 = ATCC 14581; T412V/T437A) (protein)
chain: B1 chain with T412V, T437A

Substrate: CC1=CC(=O)CC(C)(C)C1
Assay: purified protein
Details: 1 μM enzyme, 1 mM NADPH, KPi 50 mM pH 7.4, 2-50 mM substrate, 30.0 °C

Row | Protein | Km
1 | B1 | 10.95 ± 0.80 mM
2 | B2 | 17.67 ± 0.46 mM
3 | B3 | 8.29 ± 0.77 mM
4 | B4 | 10.09 ± 0.18 mM
5 | B5 | 11.39 ± 0.84 mM
